This passage reports Kd results from PMC1807978.

What all share (experiment): EMSA
Series [1] addresses 4bFH (4bZf-M.HpaII F35H) (synthetic zinc finger; prokaryotic Mtase) (UniProt P15446).
Series [2] has as its target 4cFH (4cZf-M.HpaII F35H) (synthetic zinc finger; prokaryotic Mtase) (UniProt P15446).
Series [3] addresses T1, M.HpaII wild type (no zinc finger) (UniProt P15446).
T1 sequence: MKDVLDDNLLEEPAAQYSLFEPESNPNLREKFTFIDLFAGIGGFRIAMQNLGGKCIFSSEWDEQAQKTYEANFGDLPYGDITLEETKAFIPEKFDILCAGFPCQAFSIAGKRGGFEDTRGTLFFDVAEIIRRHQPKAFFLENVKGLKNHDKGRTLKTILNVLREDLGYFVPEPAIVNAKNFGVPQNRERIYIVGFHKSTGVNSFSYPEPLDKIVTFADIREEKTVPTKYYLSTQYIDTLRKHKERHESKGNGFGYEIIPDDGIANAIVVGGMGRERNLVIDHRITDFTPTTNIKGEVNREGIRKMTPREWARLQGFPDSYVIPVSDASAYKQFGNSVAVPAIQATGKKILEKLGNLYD

For orientation: Kd means a measure of binding affinity in units of concentration. Read a low Kd as a tighter complex. For the sequence “TGGCCACGCCACTCCCCAGGCTCCATTCCAGGCCGGCGCAATGCTAGACTCGACGCGGCGCTCGTTGCCA (double strand) [Tb/c]”, the Kd in series [1] is 0.038 µM; in series [2], 0.003 µM; in series [3], 0.17 µM.
